According to patent US12065471B2, “B*44 restricted peptides for use in immunotherapy against cancers and related methods” (Immatics Biotechnologies GmbH, priority 2018, dated 2024):

What follows are substances tested against HLA-B*44:05 (Homo sapiens, UniProt P01889, A223V/A65T/A93T/A95T/D201E/D98Y/E176V/E187L/E204Q/E69K/G107R/H137Y/K202T/L105A/L119I/N104T/N87E/Q56L/Q94N/R106L/R155S/R180D/S101N/S121R/S35A/S48T/T118I/V36M/W191S/Y91S) (assay: MHC binding assay (UV-ligand exchange, β2m ELISA, peptide exchange yield)). Settings: binding to HLA-B*44:05.
Procedure, shortened: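 Peptide–HLA complexes formed by UV-ligand exchange of a UV-cleavable peptide for the test peptide. Exchange yield measured by β2m ELISA: complexes diluted 100-fold and captured on streptavidin, detected with HRP anti-β2m and TMB, read at 450 nm. Quantified against refolded HLA-A*02:01/MLA-001 monomer standards, 15-500 ng/ml.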

Peptide exchange (MHC class I binding score, peptide exchange yield), ++ (>20% = ++):
150 (SEVFHVSEA; listed as Homo sapiens) [compound 150]
297 (DEYLIPQQGFF; listed as Homo sapiens) [compound 297]
149 (AETEPERHLG; listed as Homo sapiens) [compound 149]
213 (DEDLFHKL; listed as Homo sapiens) [compound 213]
164 (DEDGKIVGY; listed as Homo sapiens) [compound 164]
399 (IEQADWPEI; listed as Homo sapiens) [compound 399]
67 (TEGAVEVKY; listed as Homo sapiens) [compound 67]
151 (TELQIPSF; listed as Homo sapiens) [compound 151]
159 (EEVQDGKVI; listed as Homo sapiens) [compound 159]
113 (MEFKTLNKN; listed as Homo sapiens) [compound 113]
252 (EEFIGKIGI; listed as Homo sapiens) [compound 252]
302 (EGEDAHLTQY; listed as Homo sapiens) [compound 302]
303 (GEDAHLTQY; listed as Homo sapiens) [compound 303]
267 (VELEVPQL; listed as Homo sapiens) [compound 267]
94 (SLAELIAKDW; listed as Homo sapiens) [compound 94]

Peptide exchange (MHC class I binding score, peptide exchange yield), +++ (>50 = +++):
438 (AELDSKILAL; listed as Homo sapiens) [compound 438]
143 (HEIIIRSHW; listed as Homo sapiens) [compound 143]
271 (REDLVGPEV; listed as Homo sapiens) [compound 271]
387 (GEVQENYKL; listed as Homo sapiens) [compound 387]
434 (AEQQQQQMY; listed as Homo sapiens) [compound 434]
250 (AELDHLASL; listed as Homo sapiens) [compound 250]
419 (SELSLLSLY; listed as Homo sapiens) [compound 419]
443 (EEYAGQITL; listed as Homo sapiens) [compound 443]
293 (QEDEQLLLRF; listed as Homo sapiens) [compound 293]
91 (EESLLSSWDF; listed as Homo sapiens) [compound 91]
310 (FELECPVKY; listed as Homo sapiens) [compound 310]
90 (EESLLSSW; listed as Homo sapiens) [compound 90]
397 (EECGKAFSVF; listed as Homo sapiens) [compound 397]
388 (VEIVTIPSL; listed as Homo sapiens) [compound 388]
367 (TEFAVKLKI; listed as Homo sapiens) [compound 367]
222 (SEDTIHTHL; listed as Homo sapiens) [compound 222]
127 (RYFDENIQKFIW; listed as Homo sapiens) [compound 127]
244 (VESSQAFTW; listed as Homo sapiens) [compound 244]
446 (AENIKKFLY; listed as Homo sapiens) [compound 446]
146 (MEELRMLSF; listed as Homo sapiens) [compound 146]
236 (LEDQLKPMLEW; listed as Homo sapiens) [compound 236]
190 (NEAGEVSKHF; listed as Homo sapiens) [compound 190]
450 (REIENGNSF; listed as Homo sapiens) [compound 450]
139 (AESDFSNNML; listed as Homo sapiens) [compound 139]
338 (AEMKFYVVI; listed as Homo sapiens) [compound 338]
116 (AEANPRDLGASW; listed as Homo sapiens) [compound 116]
122 (GESVSWHLF; listed as Homo sapiens) [compound 122]
368 (KEKVPGITI; listed as Homo sapiens) [compound 368]
415 (EEAGFPLAY; listed as Homo sapiens) [compound 415]
273 (TEFELLHQV; listed as Homo sapiens) [compound 273]

Peptide exchange (MHC class I binding score, peptide exchange yield), + (>10% = +):
133 (IEAPKLMVV; listed as Homo sapiens) [compound 133]
92 (KEPSQSCIAQY; listed as Homo sapiens) [compound 92]
398 (AEIIRYIF; listed as Homo sapiens) [compound 398]

Peptide exchange (MHC class I binding score, peptide exchange yield), ++++ (>75% = ++++):
343 (SEFDLEQVW; listed as Homo sapiens) [compound 343]
369 (KELEERMLHW; listed as Homo sapiens) [compound 369]
349 (LEWQHPSSW; listed as Homo sapiens) [compound 349]
183 (KEMQVTISQQL; listed as Homo sapiens) [compound 183]
336 (QEVNISLHY; listed as Homo sapiens) [compound 336]
430 (RELARVVTL; listed as Homo sapiens) [compound 430]
153 (IEIILLSGSL; listed as Homo sapiens) [compound 153]
395 (AEDFVWAQW; listed as Homo sapiens) [compound 395]
320 (AENPLNIFY; listed as Homo sapiens) [compound 320]
249 (YEMAIYKKY; listed as Homo sapiens) [compound 249]
287 (REVSVVDIL; listed as Homo sapiens) [compound 287]
155 (TEDARHPESW; listed as Homo sapiens) [compound 155]
365 (NESGKAFNY; listed as Homo sapiens) [compound 365]
